{"source": "the Human Domainome abundance scans (Beltran et al. 2025)", "parents": {"B1": {"name": "Apoptosis-associated speck-like protein containing a CARD, residues 114 to 194; numbered along this chain, Q9ULZ3 (parent)", "chain": "FIDQHRAALIARVTNVEWLLDALYGKVLTDEQYQAVRAEPTNPSKMRKLFSFTPAWNWTCKDLLLQALRESQSYLVEDLER"}}, "note": "± gives the uncertainty stated by the source."}
{"variants_of": "B1", "experiment": "abundance fitness (aPCA) (normalised: wild type 0, dead -1); higher = more abundant; growth selection in yeast, the domain comes from the species named", "conditions": "Homo sapiens"}
{"variant": "FIDQHRAALIARVTNVEWLLDALYGKVLTDEQYQAVRAEPTYPSKMRKLFSFTPAWNWTCKDLLLQALRESQSYLVEDLER", "abundance fitness": "-0.896 ± 0.36"}
{"variant": "FIDQHRAALIARVTNVEWLLDALYGKVLTDEQYQAVRAEPTEPSKMRKLFSFTPAWNWTCKDLLLQALRESQSYLVEDLER", "abundance fitness": "-0.337 ± 0.085"}
{"variant": "FIDQHRAALIARVTNVEWLLDALYGKVLTDEQYQAVRAEPNNPSKMRKLFSFTPAWNWTCKDLLLQALRESQSYLVEDLER", "abundance fitness": "0.045 ± 0.1"}
{"variant": "FIDQHRAALIARVTNVEWLLDALYGKVLTDEQYQAVRAEPKNPSKMRKLFSFTPAWNWTCKDLLLQALRESQSYLVEDLER", "abundance fitness": "-0.755 ± 0.18"}
{"variant": "FIDQHRAALIARVTNVEWLLDALYGKVLTDEQYQAVRAEPGNPSKMRKLFSFTPAWNWTCKDLLLQALRESQSYLVEDLER", "abundance fitness": "-0.484 ± 0.048"}
{"variant": "FIDQHRAALIARVTNVEWLLDALYGKVLTDEQYQAVRAEPSNPSKMRKLFSFTPAWNWTCKDLLLQALRESQSYLVEDLER", "abundance fitness": "-0.199 ± 0.057"}
{"variant": "FIDQHRAALIARVTNVEWLLDALYGKVLTDEQYQAVRAEPENPSKMRKLFSFTPAWNWTCKDLLLQALRESQSYLVEDLER", "abundance fitness": "-0.782 ± 0.17"}
{"variant": "FIDQHRAALIARVTNVEWLLDALYGKVLTDEQYQAVRAEPFNPSKMRKLFSFTPAWNWTCKDLLLQALRESQSYLVEDLER", "abundance fitness": "-1.2 ± 0.31"}
{"variant": "FIDQHRAALIARVTNVEWLLDALYGKVLTDEQYQAVRAEPVNPSKMRKLFSFTPAWNWTCKDLLLQALRESQSYLVEDLER", "abundance fitness": "-0.707 ± 0.087"}
{"variant": "FIDQHRAALIARVTNVEWLLDALYGKVLTDEQYQAVRAEPLNPSKMRKLFSFTPAWNWTCKDLLLQALRESQSYLVEDLER", "abundance fitness": "-0.834 ± 0.11"}
{"variant": "FIDQHRAALIARVTNVEWLLDALYGKVLTDEQYQAVRAEPRNPSKMRKLFSFTPAWNWTCKDLLLQALRESQSYLVEDLER", "abundance fitness": "-0.907 ± 0.1"}
{"variant": "FIDQHRAALIARVTNVEWLLDALYGKVLTDEQYQAVRAEPPNPSKMRKLFSFTPAWNWTCKDLLLQALRESQSYLVEDLER", "abundance fitness": "-0.845 ± 0.15"}
{"variant": "FIDQHRAALIARVTNVEWLLDALYGKVLTDEQYQAVRAEPCNPSKMRKLFSFTPAWNWTCKDLLLQALRESQSYLVEDLER", "abundance fitness": "-0.28 ± 0.077"}
{"variant": "FIDQHRAALIARVTNVEWLLDALYGKVLTDEQYQAVRAEPWNPSKMRKLFSFTPAWNWTCKDLLLQALRESQSYLVEDLER", "abundance fitness": "-0.653 ± 0.098"}
{"variant": "FIDQHRAALIARVTNVEWLLDALYGKVLTDEQYQAVRAEPMNPSKMRKLFSFTPAWNWTCKDLLLQALRESQSYLVEDLER", "abundance fitness": "-0.701 ± 0.13"}
{"variant": "FIDQHRAALIARVTNVEWLLDALYGKVLTDEQYQAVRAEPANPSKMRKLFSFTPAWNWTCKDLLLQALRESQSYLVEDLER", "abundance fitness": "-0.52 ± 0.081"}
{"variant": "FIDQHRAALIARVTNVEWLLDALYGKVLTDEQYQAVRAEPQNPSKMRKLFSFTPAWNWTCKDLLLQALRESQSYLVEDLER", "abundance fitness": "-0.517 ± 0.14"}
{"variant": "FIDQHRAALIARVTNVEWLLDALYGKVLTDEQYQAVRAEPYNPSKMRKLFSFTPAWNWTCKDLLLQALRESQSYLVEDLER", "abundance fitness": "-0.519 ± 0.24"}
{"variant": "FIDQHRAALIARVTNVEWLLDALYGKVLTDEQYQAVRAEATNPSKMRKLFSFTPAWNWTCKDLLLQALRESQSYLVEDLER", "abundance fitness": "-0.256 ± 0.068"}
{"variant": "FIDQHRAALIARVTNVEWLLDALYGKVLTDEQYQAVRAEDTNPSKMRKLFSFTPAWNWTCKDLLLQALRESQSYLVEDLER", "abundance fitness": "-0.38 ± 0.16"}
{"variant": "FIDQHRAALIARVTNVEWLLDALYGKVLTDEQYQAVRAEFTNPSKMRKLFSFTPAWNWTCKDLLLQALRESQSYLVEDLER", "abundance fitness": "-0.912 ± 0.28"}
{"variant": "FIDQHRAALIARVTNVEWLLDALYGKVLTDEQYQAVRAELTNPSKMRKLFSFTPAWNWTCKDLLLQALRESQSYLVEDLER", "abundance fitness": "-0.587 ± 0.074"}
{"variant": "FIDQHRAALIARVTNVEWLLDALYGKVLTDEQYQAVRAEITNPSKMRKLFSFTPAWNWTCKDLLLQALRESQSYLVEDLER", "abundance fitness": "-0.339 ± 0.14"}
{"variant": "FIDQHRAALIARVTNVEWLLDALYGKVLTDEQYQAVRAECTNPSKMRKLFSFTPAWNWTCKDLLLQALRESQSYLVEDLER", "abundance fitness": "-0.434 ± 0.096"}
{"variant": "FIDQHRAALIARVTNVEWLLDALYGKVLTDEQYQAVRAENTNPSKMRKLFSFTPAWNWTCKDLLLQALRESQSYLVEDLER", "abundance fitness": "-0.419 ± 0.18"}
{"variant": "FIDQHRAALIARVTNVEWLLDALYGKVLTDEQYQAVRAETTNPSKMRKLFSFTPAWNWTCKDLLLQALRESQSYLVEDLER", "abundance fitness": "-0.202 ± 0.07"}
{"variant": "FIDQHRAALIARVTNVEWLLDALYGKVLTDEQYQAVRAEETNPSKMRKLFSFTPAWNWTCKDLLLQALRESQSYLVEDLER", "abundance fitness": "-0.257 ± 0.086"}
{"variant": "FIDQHRAALIARVTNVEWLLDALYGKVLTDEQYQAVRAEYTNPSKMRKLFSFTPAWNWTCKDLLLQALRESQSYLVEDLER", "abundance fitness": "-0.633 ± 0.19"}
{"variant": "FIDQHRAALIARVTNVEWLLDALYGKVLTDEQYQAVRAEGTNPSKMRKLFSFTPAWNWTCKDLLLQALRESQSYLVEDLER", "abundance fitness": "-0.425 ± 0.042"}
{"variant": "FIDQHRAALIARVTNVEWLLDALYGKVLTDEQYQAVRAESTNPSKMRKLFSFTPAWNWTCKDLLLQALRESQSYLVEDLER", "abundance fitness": "-0.291 ± 0.063"}
{"variant": "FIDQHRAALIARVTNVEWLLDALYGKVLTDEQYQAVRAEMTNPSKMRKLFSFTPAWNWTCKDLLLQALRESQSYLVEDLER", "abundance fitness": "-0.896 ± 0.24"}
{"variant": "FIDQHRAALIARVTNVEWLLDALYGKVLTDEQYQAVRAERTNPSKMRKLFSFTPAWNWTCKDLLLQALRESQSYLVEDLER", "abundance fitness": "-0.167 ± 0.041"}
{"variant": "FIDQHRAALIARVTNVEWLLDALYGKVLTDEQYQAVRAEKTNPSKMRKLFSFTPAWNWTCKDLLLQALRESQSYLVEDLER", "abundance fitness": "-0.123 ± 0.086"}
{"variant": "FIDQHRAALIARVTNVEWLLDALYGKVLTDEQYQAVRAEWTNPSKMRKLFSFTPAWNWTCKDLLLQALRESQSYLVEDLER", "abundance fitness": "-0.832 ± 0.12"}
